Measured values published in the supplement of paper PMC10567573.

B1: SLC6A17 (parent)
chain: KAVEEELDAEDRPAWNSKLQYILA
B2: CDKN1A (parent)
chain: GRKRRQTSMTDFYHSKRRLIFSKR

Variants of: B1
Assay: protein stability index of a GFP-peptide fusion (GPS, HEK-293T) (PSI 1-6); higher = more stable
Details: c terminus: a fixed tail appended
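Further: lentivirally expressed fusions sorted by FACS into six bins by GFP to DsRed ratio, PSI derived from sequencing read proportions per bin multiplied by bin number.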

Protein stability index: each site, then its substitutions
V3: R 3.14, A 3.18, G 2.79, L 2.31, P 2.58, H 1.52, E 2.75, I 2.41, M 2.19, S 2.65, W 1.7, T 2.43, K 2.94, C 2.77
P13: A 1.54, F 2.63, L 1.85, Y 2.65, D 2.72, M 2.79, I 1.42, W 2.88, N 2.31, E 2.41
S17: W 1.82, V 2.46, C 1.99, G 2.75, K 2.19, I 1.83, Y 2.16, N 3.15, T 2.25, M 2.33, H 2.23, F 2.5, R 3.4, D 3.17, E 4.48, A 2.55, Q 2.32
A9: D 2.38, Q 2.44, E 2.61, R 2.69, N 2.83, W 2.06, F 1.95, V 3.1, H 2.41, Y 2.48, T 2.82
W15: K 3.99, E 4.65, H 4.06, D 3.94, C 3.64, M 3.74, A 3.89, R 3.62, L 2.52, G 3.82, F 3.1, Q 4.04, T 3.46, N 4.13
L7: I 2.08, N 3.42, R 3.53, M 2.98, D 3.48, K 2.85, V 2.9, H 3.09, P 3.64, T 3.1, F 2.23, S 3.61, G 4.11
E5: N 1.63, L 2.14, F 1.91, G 1.89, T 2.33, H 2.32, I 2.19, R 2.04, Y 1.66, P 2.7
A14: H 2.57, S 4.07, E 3.08, K 2.62, V 2.38, M 2.1, L 1.99, N 2.2, I 2.5, F 2.18, G 2.35, Q 2.4, D 3.38
L23: K 3.89, E 4.91, V 3.17, C 3.59, P 3.97, I 2.64, H 3.84, Q 3.82, R 4.42, M 2.6, W 3.19, D 4.9, N 4.18, S 4.23, T 3.91, Y 3.01
R12: K 2.83, L 2.45, A 3.54, Y 2.2, W 2.19, I 2.47, G 2.32, E 3.95, N 2.97, D 3.74, C 2.8, H 2.41, M 2.19, F 1.76
A24: H 2.15, D 3.55, Y 2.18, F 2.73, T 2.85, E 2.63, C 2.46, V 1.68, N 3.48, M 2.06, S 2.82, R 3.27, I 2.23, L 2.28
Q20: R 3.39, Y 2.4, W 1.56, H 2.53, M 2.16, A 2.06, S 2.71, C 2.13, K 2.92, L 1.88, D 3.56, N 2.9, F 1.9
K18: T 3.05, N 4.01, H 2.7, P 3.77, A 3.16, W 2.53, E 3.76, C 3.19, V 1.64, D 4, M 2.27, Q 3.22, Y 3.15
K1: S 3.24, E 3.19, L 2.08, I 2.12, F 2.71, C 1.62, W 1.74, P 3.03, D 2.96, H 2.83, V 3.64, R 2.34, Q 2.82, A 2.65
D8: E 2.64, R 2.75, K 2.93, V 2.91, W 1.83, P 3.77, H 2.55, G 2.07, M 1.92, A 3.21, Q 2.25, C 2.14, I 2.57, L 1.77
E6: T 2.24, I 1.47, L 1.7, P 2.53, S 2.14, M 1.5, C 2.07, F 1.73, A 1.86, N 2.45, W 1.16, D 3.44, V 2.13
D11: S 1.98, N 2.28, I 2.54, L 1.79, G 3.55, Y 1.42, T 2.65, P 2.02, R 2.54, K 2.67, A 3.08, M 1.69, Q 2.12, F 2.07, H 2.59
Y21: V 2.08, S 3.92, I 3.09, H 3.16, L 2.83, A 3.99, R 2.8, N 3.42, D 3.92, M 3.4, P 4.58, Q 2.75, K 3.67
N16: W 2.05, I 2.05, T 2.07, F 2.14, E 2.81, D 3.45, A 2.25, R 2.75, C 2.08, V 2.58, Q 2.1, L 2.06, Y 2.09, H 2.83, M 2.37
I22: V 3.04, L 2.83, E 5.01, A 3.8, K 3.78, D 4.86, N 4.41, F 2.2, G 4.06, R 4.15, Y 3.94
E4: F 1.43, R 2.98, S 2.21, H 2.24, T 3.27, K 2.52, Q 2.51, V 2.03, C 2.31, P 2.54
A2: T 1.83, H 2.24, F 1.93, K 2.46, W 1.49, C 2.21, V 2.23, Y 2.51, S 2.81, G 2.81, N 2.61
L19: N 4.2, M 2.8, I 2.52, E 4.27, R 3.63, V 2.28, D 4.1, H 3.69, C 3.56, P 3.4, T 3.83, W 2.48, A 3.8, S 2.75
E10: L 2.15, G 3.72, C 2.23, H 1.84, Y 1.93, M 1.47, Q 1.67, I 1.86, K 2.5, W 1.76, F 2.63, A 2.27

Variants of: B2
Assay: as above
Details: c terminus: a fixed tail appended

Protein stability index, by site and new letter:
K3: W 2.56
Y13: D 4.24
R2: C 3.93
L19: P 2.14, S 3.31
F12: T 2.78, Y 2.17
S8: H 4.01
F21: H 3
R17: K 3.87
R4: E 3.62
R24: A 3.13, M 2.17, S 3.62
R18: H 2.15, C 2.37
S22: Q 3.09
M9: D 4.34, G 3.98, L 2.98
